Positions count from the first letter of the chain named.
T1: soluble human IL-4Rα (sIL-4Rα; PEPRO TECH, Catalog Number: 200-04R) (human, UniProt P24394 26-232)
T1 construct: Bought protein; also called shIL-4Rα; soluble hIL-4 Rα
T1 sequence: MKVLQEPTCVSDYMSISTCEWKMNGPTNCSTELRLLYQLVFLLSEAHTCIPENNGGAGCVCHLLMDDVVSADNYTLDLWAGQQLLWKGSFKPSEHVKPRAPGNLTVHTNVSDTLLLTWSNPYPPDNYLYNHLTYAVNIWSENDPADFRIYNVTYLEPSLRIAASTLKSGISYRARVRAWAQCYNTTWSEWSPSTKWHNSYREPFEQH

B1: L1007H1000 (antibody, V domains shown)
VH: EVQLVQSGGGLVHPGGSLRLSCAGSGFTFSRNAMFWVRQAPGKGLEWVSGIGTGGATNYADSVKGRFTISRDNAKNSLYLQMNSLRAEDMAVYYCARGRYYFDYWGQGTLVTVSS
VL: not shown
B2: L1008H1000 (antibody, V domains shown)
VH: B1 VH
VL: not shown
B3: L1009H1000 (antibody, V domains shown)
VH: B1 VH
VL: not shown
B4: L1010H1000 (antibody, V domains shown)
VH: B1 VH
VL: not shown
B5: L1011H1000 (antibody, V domains shown)
VH: B1 VH
VL: EIVLTQSPGTLSLSPGERATLSCRASQSVSNSYLAWYQQKPGQAPRLLIFGASSRAPGIPDRFSGSGSGTDFTLTISRLEPEDFAVYYCQQYGSSPPWTFGQGTKVEIK
B6: L1012H1000 (antibody, V domains shown)
VH: B1 VH
VL: not shown
B7: L1012H1007 (antibody, V domains shown)
VH: B1 VH with N58S
VL: not shown
B8: L1012H1020 (antibody, V domains shown)
VH: B1 VH with N58S, D103P, Y104W
VL: not shown
B9: L1012H1029 (antibody, V domains shown)
VH: B1 VH with Q6E, H13Q, G24A, N58S, D103P, Y104W
VL: not shown
B10: L1012H1031 (antibody, V domains shown)
VH: B1 VH with Q6E, H13Q, G24A, N58S, M90T
VL: not shown
B11: L1013H1000 (antibody, V domains shown)
VH: B1 VH
VL: B5 VL with P57T, G93D, S94H
B12: L1015H1000 (antibody, V domains shown)
VH: B1 VH
VL: B5 VL with N31S, G93D, S94H
B13: L1016H1000 (antibody, V domains shown)
VH: B1 VH
VL: B5 VL with N31S, P57T, G93D, S94H
B14: L1017H1000 (antibody, V domains shown)
VH: B1 VH
VL: not shown
B15: L1019H1000 (antibody, V domains shown)
VH: B1 VH
VL: B5 VL with P57T, G93D, S94H, P96A, P97G
B16: L1020H1000 (antibody, V domains shown)
VH: B1 VH
VL: B5 VL with N31S, F50Y, P57T, G93D, S94H, P96A, P97G
B17: L1020H1007 (antibody, V domains shown)
VH: B1 VH with N58S
VL: B5 VL with N31S, F50Y, P57T, G93D, S94H, P96A, P97G
B18: L1020H1016 (antibody, V domains shown)
VH: B1 VH with D103P, Y104W
VL: B5 VL with N31S, F50Y, P57T, G93D, S94H, P96A, P97G

These binders were tested against T1, soluble human IL-4Rα (sIL-4Rα; PEPRO …) (assay: ELISA, coated sIL-4Rα, culture supernatant).
Procedure: Sample to be tested: For each antibody of the present invention, 10 μl and 2 μl of the culture supernatant of Expi293 cells expressing the antibody after transient transfection (the medium was Expi293 Expression Medium, Invitrogen, Catalog Number: A1435102; suspension culture was performed for 4 days at 100 rpm in a 8% CO2 incubator) were respectively added to 990 μl and 998 μl of PBS to prepare antibody samples to be tested of 1:100 and 1:500 dilutions.
100 μl of 100 μg/ml sIL-4Rα solution was added to 9.90 ml of PBS, mixed up and down, and then an antigen coating buffer of 1.0 μg/ml was obtained. The prepared antigen coating buffer was added to a 96-well ELISA plate (Corning) with a volume of 100 μl per well. The 96-well ELISA plate was incubated overnight in a refrigerator at 4° C. On the next day, the solution therein was discarded, and PBS containing 2% BSA was added to the 96-well ELISA plate row by row with a volume of 300 μl per well. The 96-well ELISA plate was incubated for 2 hours in a refrigerator at 4° C. Then the PBS containing 2% BSA was discarded and the plate was washed 3 times with PBST. Diluted antibodies to be tested were sequentially added to the corresponding wells, while the normal cell culture supernatants, as negative control samples, were added too. Three duplicate wells were made for each sample with a volume of 100 μl per well. The ELISA plate was wrapped with preservative film (or covered) and incubated for 1 h at 10° C. in a constant temperature incubator. Subsequently, the 96-well ELISA plate was taken out, and the solution therein was discarded. After washing with PBST for 3 times, TMB solution (Solarbio, Catalog Number: PR1200) was added to the 96-well ELISA plate row by row with a volume of 100 μl per well. The 96-well ELISA plate was placed at room temperature for 5 minutes, and 2 M H2SO4 solution was added in immediately to terminate the reaction. The 96-well ELISA plate was placed in flexstation 3 (Molecular Devices), the values of OD450 were read, and the data were collected, calculated and analyzed. Results were expressed relative to the affinity of control antibody 1.

Row | Binder | OD450/OD450 Control antibody 1
1 | B1 | 0.8 ratio to control antibody 1
2 | B2 | 0.9 ratio to control antibody 1
3 | B3 | 0.64 ratio to control antibody 1
4 | B4 | 1 ratio to control antibody 1
5 | B5 | 0.9 ratio to control antibody 1
6 | B6 | 1.22 ratio to control antibody 1
7 | B7 | 0.4 ratio to control antibody 1
8 | B8 | 0.11 ratio to control antibody 1
9 | B9 | 0.11 ratio to control antibody 1
10 | B10 | 0.16 ratio to control antibody 1
11 | B11 | 0.24 ratio to control antibody 1
12 | B12 | 0.67 ratio to control antibody 1
13 | B13 | 0.27 ratio to control antibody 1
14 | B14 | 0.49 ratio to control antibody 1
15 | B15 | 1.79 ratio to control antibody 1
16 | B16 | 2.27 ratio to control antibody 1
17 | B17 | 0.4 ratio to control antibody 1
18 | B18 | 0.8 ratio to control antibody 1
